Measured values published in paper PMC10786891, “Massively parallel profiling of RNA-targeting CRISPR-Cas13d”.
Changes are numbered by the printed parent chain. Names and notes keep the numbering of the source.

T1: EsCas13d, nuclease-dead (Eubacterium siraeum, UniProt B0MS50, R295A;H300A;R849A;H854A)
T1 sequence: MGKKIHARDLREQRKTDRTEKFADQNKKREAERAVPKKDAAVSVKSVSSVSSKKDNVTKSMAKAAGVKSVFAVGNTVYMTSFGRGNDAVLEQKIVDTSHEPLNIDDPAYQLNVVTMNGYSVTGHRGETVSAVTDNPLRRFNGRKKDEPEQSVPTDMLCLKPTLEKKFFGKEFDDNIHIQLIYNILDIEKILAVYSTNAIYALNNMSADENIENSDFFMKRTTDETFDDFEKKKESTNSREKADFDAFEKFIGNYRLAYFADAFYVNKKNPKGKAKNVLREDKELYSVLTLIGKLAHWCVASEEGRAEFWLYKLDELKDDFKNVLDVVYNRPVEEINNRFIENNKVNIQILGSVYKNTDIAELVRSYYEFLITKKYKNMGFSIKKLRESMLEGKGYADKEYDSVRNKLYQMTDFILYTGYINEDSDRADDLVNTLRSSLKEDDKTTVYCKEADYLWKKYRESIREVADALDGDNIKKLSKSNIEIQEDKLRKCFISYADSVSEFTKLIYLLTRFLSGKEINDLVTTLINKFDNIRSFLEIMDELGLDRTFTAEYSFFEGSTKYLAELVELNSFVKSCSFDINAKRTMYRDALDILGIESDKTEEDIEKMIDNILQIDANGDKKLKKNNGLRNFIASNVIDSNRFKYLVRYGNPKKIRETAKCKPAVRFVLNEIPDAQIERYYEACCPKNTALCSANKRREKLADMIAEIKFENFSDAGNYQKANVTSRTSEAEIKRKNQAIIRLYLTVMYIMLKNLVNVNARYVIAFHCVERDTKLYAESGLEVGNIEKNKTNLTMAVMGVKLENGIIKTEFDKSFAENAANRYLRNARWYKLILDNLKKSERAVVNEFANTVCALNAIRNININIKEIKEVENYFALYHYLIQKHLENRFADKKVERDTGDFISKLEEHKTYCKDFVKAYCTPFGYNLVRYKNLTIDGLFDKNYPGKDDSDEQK

B1: target 1 insC 3' of 10,insA 3' of 7 (mixed)
RNA 1: CACCCGUGCAAAAAUGCAGGGGUCUAAAACUGAGCGGAUAACCUCUCUAUGG
RNA 2: GGGAAUGGAUCCACAUCUACGAAUUCGUACCAUAGAGAGGUUCAUCACGCUCACCGAGAUCGGAAGAGCACACGU
B2: target 1 insC 3' of 15,insG 3' of 14 (mixed)
RNA 1: B1 RNA 1
RNA 2: B1 RNA 2 with A38C, G39A, U41G, U42G, C43U, A44U, U45A, C46U, A47C
B3: target 1 insA 3' of 15,insA 3' of 11 (mixed)
RNA 1: B1 RNA 1
RNA 2: B1 RNA 2 with G39A, U41G, C43A, A44U, U45A, C46U, A47C
B4: target 1 insC 3' of 22,insG 3' of 9 (mixed)
RNA 1: B1 RNA 1
RNA 2: GGGAAUGGAUCCACAUCUACGAAUUCGUACCCAUAGAGAGGUUAGUCCGCUCACCGAGAUCGGAAGAGCACACGU
B5: target 1 insG 3' of 18,insC 3' of 17 (mixed)
RNA 1: B1 RNA 1
RNA 2: GGGAAUGGAUCCACAUCUACGAAUUCGUACCAUAGGCAGAGGUUAUCCGCUCACCGAGAUCGGAAGAGCACACGU
B6: target 1 C6G,C21A (mixed)
RNA 1: B1 RNA 1
RNA 2: GGGAAUGGAUCCACAUCUACGAAUUCGUACAAUAGAGAGGUUAUCGGCUCACCGAGAUCGGAAGAGCACACGU
B7: target 1 insA 3' of 17,insA 3' of 12 (mixed)
RNA 1: B1 RNA 1
RNA 2: B5 RNA 2 with G36A, C37A, A38G, G39A, A40G, G42A
B8: target 1 del7,del19 (mixed)
RNA 1: B1 RNA 1
RNA 2: GGGAAUGGAUCCACAUCUACGAAUUCGUACCAAGAGAGGUUAUCGCUCACCGAGAUCGGAAGAGCACACGU
B9: target 1 insC 3' of 13,insU 3' of 9 (mixed)
RNA 1: B1 RNA 1
RNA 2: B1 RNA 2 with G40C, U41G, C43U, C46U, A47C
B10: target 1 del17,del18 (mixed)
RNA 1: B1 RNA 1
RNA 2: GGGAAUGGAUCCACAUCUACGAAUUCGUACCAUAGAGGUUAUCCGCUCACCGAGAUCGGAAGAGCACACGU
B11: target 1 C7G,C22A (mixed)
RNA 1: B1 RNA 1
RNA 2: B6 RNA 2 with C30A, A31C, C45G, G46C
B12: target 1 U3A,C21U (mixed)
RNA 1: B1 RNA 1
RNA 2: B6 RNA 2 with A31U, G46C, U49A
B13: target 1 insG 3' of 7,insG 3' of 3 (mixed)
RNA 1: B1 RNA 1
RNA 2: B1 RNA 2 with C43A, A44U, U45C, C46G, A47C, C48G, G49C, C50U, U51G
B14: target 1 insG 3' of 22,insC 3' of 8 (mixed)
RNA 1: B1 RNA 1
RNA 2: B4 RNA 2 with C31G, G45U, U46C
B15: target 1 insA 3' of 12,insA 3' of 8 (mixed)
RNA 1: B1 RNA 1
RNA 2: B1 RNA 2 with U41A, C43U, C46A, A47C
B16: target 1 insG 3' of 20,insA 3' of 13 (mixed)
RNA 1: B1 RNA 1
RNA 2: B4 RNA 2 with C32A, A33G, G41A, U42G, A44U, G45A
B17: target 1 insU 3' of 20,insC 3' of 8 (mixed)
RNA 1: B1 RNA 1
RNA 2: B4 RNA 2 with C32A, A33U, G45U, U46C
B18: target 1 U3G,G17U (mixed)
RNA 1: B1 RNA 1
RNA 2: B6 RNA 2 with A31C, G35U, G46C, U49G
B19: target 1 U3A,U10C (mixed)
RNA 1: B1 RNA 1
RNA 2: B6 RNA 2 with A31C, U42C, G46C, U49A
B20: target 1 insU 3' of 22,insA 3' of 11 (mixed)
RNA 1: B1 RNA 1
RNA 2: B4 RNA 2 with C31U, U43A, A44U, G45A
B21: target 1 insC 3' of 22,insC 3' of 3 (mixed)
RNA 1: B1 RNA 1
RNA 2: B4 RNA 2 with G45U, U46C, C48G, G49C, C50U, U51C
B22: target 1 insC 3' of 19,insC 3' of 8 (mixed)
RNA 1: B1 RNA 1
RNA 2: B4 RNA 2 with C32A, A33U, U34C, G45U, U46C
B23: target 1 G5U,A16U (mixed)
RNA 1: B1 RNA 1
RNA 2: B6 RNA 2 with A31C, A36U, G46C, G47U
B24: target 1 insC 3' of 17,insC 3' of 5 (mixed)
RNA 1: B1 RNA 1
RNA 2: B1 RNA 2 with A36C, G37A, A38G, G39A, U41G, C43U, A47C, C48G, G49C
B25: target 1 C2G,U19G (mixed)
RNA 1: B1 RNA 1
RNA 2: B6 RNA 2 with A31C, U33G, G46C, C50G
B26: target 1 insC 3' of 11,insG 3' of 4 (mixed)
RNA 1: B1 RNA 1
RNA 2: B1 RNA 2 with U42C, C43U, A47C, C48G, G49C, C50G
B27: target 1 A14G,U19G (mixed)
RNA 1: B1 RNA 1
RNA 2: B6 RNA 2 with A31C, U33G, A38G, G46C
B28: target 1 insU 3' of 20,insG 3' of 4 (mixed)
RNA 1: B1 RNA 1
RNA 2: B4 RNA 2 with C32A, A33U, G45U, U46C, C48G, G49C, C50G
B29: target 1 insA 3' of 19,insA 3' of 5 (mixed)
RNA 1: B1 RNA 1
RNA 2: B4 RNA 2 with C32A, A33U, U34A, G45U, U46C, C48G, G49A
B30: target 1 U10C,C21U (mixed)
RNA 1: B1 RNA 1
RNA 2: B6 RNA 2 with A31U, U42C, G46C
B31: target 1 C6U,A9C (mixed)
RNA 1: B1 RNA 1
RNA 2: B6 RNA 2 with A31C, A43C, G46U
B32: target 1 U8G,U11G (mixed)
RNA 1: B1 RNA 1
RNA 2: B6 RNA 2 with A31C, U41G, U44G, G46C
B33: target 1 insU 3' of 18,insC 3' of 12 (mixed)
RNA 1: B1 RNA 1
RNA 2: B5 RNA 2 with G35U, C37A, A38G, G39A, A40G, G42C

Biological target: T1, EsCas13d, nuclease-dead
Assay: crRNA (strand 1, pre-loaded); Mg2+; 40 mM Tris-HCl pH 7.5, 150 mM NaCl, 6 mM MgCl2, 1 mM DTT, 0.1% Tween-20, 0.2 mg/ml BSA; 25 C; 10 min per concentration, then washed
Conditions: tags: His6-TwinStrep-SUMO cleaved; N-terminal SNAP kept (SNAP-Surface 488); label: 3' end held by stalled T7 RNA polymerase

Binder | Kd
B1 | 11.2 ± 0.6 nM
B2 | 22.7 ± 1.8 nM
B3 | 14.8 ± 0.8 nM
B4 | 33 ± 16 nM
B5 | 89 ± 32 nM
B6 | 24.3 ± 1.5 nM
B7 | 42 ± 8 nM
B8 | 52 ± 6 nM
B9 | 10 ± 0.5 nM
B10 | 13.9 ± 1.6 nM
B11 | 14.2 ± 0.6 nM
B12 | 19 ± 6 nM
B13 | 5.41 ± 0.21 nM
B14 | ~90 nM
B15 | 37 ± 3.3 nM
B16 | 32 ± 8 nM
B17 | 19.1 ± 1 nM

Binder | Kd
B18 | 20.8 ± 1.6 nM
B19 | 19.7 ± 2 nM
B20 | 66 ± 15 nM
B21 | 15.6 ± 1.3 nM
B22 | 52 ± 5 nM
B23 | 66 ± 10 nM
B24 | 61 ± 6 nM
B25 | 38 ± 4 nM
B26 | 22.7 ± 1.2 nM
B27 | ~80 nM
B28 | 10.4 ± 0.7 nM
B29 | 16 ± 1.2 nM
B30 | 8.5 ± 0.4 nM
B31 | 33.1 ± 1.9 nM
B32 | 18.9 ± 0.7 nM
B33 | ~90 nM
